Measurements as given in the DeepSol protein solubility set.

assay: soluble on expression in E. coli; label from the status in PepcDB or PDB records

Soluble on expression in E. coli, not soluble:
MGSDKIHHHHHHMAAALDGIRVLDLSRVLAGPWASQALADLGAEVIKIERPGAGDDTRSWGPPFLKDEDGRETTDAAYFLAANRGKKSLTVDITKAEGQDLVRALAARSHVVIENFKLGGLAKYGLDWPSLRAVNPALVYCSITGFGQTGPYAPRAGYDAMIQAMSGLMSVTGEPDGVAGGGPMKVGVAVTDILTGLYAAFGILAALRHAEATGEGQHIDLALMDTAVACMANQAANALVGERVPGRLGTAHPNIVPYQAFATQDGHLMLAVGNDGQFARLCAIGQRPDLPLDPRFARNRDRVAHRAALLAEIIPMMASRSTDAWIAALESAGVPCGPINTLDRVFADPQVIARGLRVDGTHAEAGTVPMVRNPLLLSATPPTHTAGPPTLGQHTDGVLSDVLGLTAEDITTLRQKAIV
MGSDKIHHHHHHMAARLREFRRAIGDPDREEFARSIGVSKTTLASYERGESEPTASVLFAYREKHGADVLWLVGGEGEMRGSQLSSAAVAERDFVLMPQYDVCASAGTGRLPVNQMPTSETAFERKFLRDLGGAPDHCFLMWSTGDSMLPSIPDNALLIVDASQTTVDHGRIYVFSVGNAVLVKRANWRMDGRLDLISDNTAGKYPVETFDANRVEDLAVVGRVIFVGHPP
MGSDKIHHHHHHMADFNQYTRWEHQMHGVKLPRWDDLPKFDLYMDQVTALINDVLGPLGIDTVTPAMINNYVKHNVIMAPVKKKYQTMQLTDILMISLLKPMFQTDTVRSGIDQITAGDYPKQAYDNFIGQLEDRLHHLGEDQVQPAAQNLNEKLMQVAVDTVVSRLQSEKLLRLIKRPLRKIEKK
MGSDKIHHHHHHMADFPTRPDEVDAVWLEARLADAGVLDGARIVKVEWQSIGTGQVGDTARFSLTYDRPAPLAPASVAAKFPSSDPTSRQTAASFSLYKREVNFYRDVAGLIDMRVPRAYAALLDDNGCDFVLLFEDLGPCEAGNQLSGCGIDQARDALRQAAALHAATLDHPVLDSEWLQTDPQASAMLRALYPQAQAIFRERYADALDPALMAICDELDECADLWFDRKPARRSFLHGDFRLDNMLFGIRDGQEPIALVDWQTAAVGCGLTDIGYFMGCGIGSGLRRPHEAALLDLYCAEMTRRGVAMTRDEIMDDYRIGALHGVSTAVFSSAFVVRTERGDANFLSMARGACELALEHNSLGALKRRMENA
MGSDKIHHHHHHMADLTDLERTRHLVDLLAPARKTRIVDIGANPINDNPYAPLLDIGAAEVWGFEPQTEAFDKLVARNAPDEHYVNAAVGKGGTGTLNICASSGTSSLLTPNVDAMDAVTGWHKYFEVVGTVDVETKRLDNIAEIPEFDLLKIDVQGAEREVFTYGKKRLSTALAVITEVAAIPLYEDQPLLGDQMVLLGKLGFDLHKFLFWKDVVLRSKYLNGMRRRRMRTQLVDGDAVFVRDLLHLKDMETERLKHLTLLADAVFESFDMVLYCLEILEDRGVLTEAAIRTYVARMPYQRDPQPRLVESVGQ
MGSDKIHHHHHHMADNETIPSCANCSAVWQKSGTTNCWSSPDNRPGQPANCPSKTSPDIIDESFAEYRGDGDDARLARVAARVEGLCYQKMQGSDAVVARWTRVEDTVALAKLMGWTKVGIATCIGLLEETKQLVTILEAQGLEPASVCCKSGSIDKLELGLEESDKVRPGTFEPACNPIAQAEILNRCGTQMNIIVGLCVGHDMLFTKHSKAPVTTLVCKDRVTGHNPAAVLYGQNFYYKRLKVQPVAVPTEEK
MGSDKIHHHHHHMADQKETIKPFKKIAIFDIFSGENSEIICSDKSKIAAQVNKWVNRAISNGADSCYVRLYEANKENIDTIIENLSYKILQIILPFSLNYKSSLVSAFHFREKDQIKMPEAKSNNVLFGKSCHSLKSIEEAEYEGLDYVFFSPIFATPTHPEAKGIGLDMLTQACKSTQMKVFALGGINENNYQKCLDAGASGIAAISMFKK
MGSDKIHHHHHHMAFIAGEIAAVLDLPEVLRRRLFVAALLHDVGALSPEEKMDLYASKVEECDTHCIRGARLLHQVDGFGEEGRVLRLHHATLRDGSLADVDEDTARLAQIVHLSDLVDRALDRGRYVLHQADTMCDMARDLARCDFEVSIVRAFLEVARREDFWLQMVLPTLGQHLEAISPCRGEMLDACGVEVHAGLVQGMVDFRSSFTAAHSAGVAEAADALGGYCDLSPERRVVLRIAGLLHDLGKMAVPTSILEKPSGLTKAEFAFMRQHTFHTYRLLRGVDGLGGMAAWAAYHHEKLDGSGYPFHLEGRALDPQARIIGVADIFTAMAEDRPYRKGQGREGVLRVLRDECTTGRVDGELVETVAESYPDMVGRVLDAQHAARSRFSDVLQPAGEKGAKADQST
MGSDKIHHHHHHMAFIKPEQQFNPDALHNLVIGIAADMGKHDSGMHHHHKAQLLYASAGCMRFSLADTQVVLPPTRAAWLPAGVEHHVTMRNVVAYRSLYFEPEAVASLPSEVTIFHVNPLLKALIDTMSYWPWNKPRYSQHNAFALFCEELENAKAENLALPLPQDKRLQTWLKQVLQQEMQPANLKEMAIEIGASERTISRIFSSQTGMAYQAWRQQWRLLSAIEQLAAGTSVAQAGFNLQFSSDSAFISFFKQYTGTTPAQYFK
MGSDKIHHHHHHMAFKTPLADRMRPQSLEQMVGQQDLLKAGQPLRQIIDQHVNIPLILWGPPGTGKTSLAQIIASQDDYPFVAFNASTENKAQLTKAIAQYPEQSFVLLIDEIHRMTKTLQDFLLPYLENGHVMLIGSTTENPIMSIVPAIRSRCQIFEFQPLSDTDIEIALRRAVTDIYNLTDDQVDAKALNLIAISAEGDLRIALNILETLHAIDQKQITVAAVQHFAQQQHFSYDRKATKHYDYLSAYSDSMAGSDTDAALYYLTILLKNDDLPSVVRRLREIPYTYIGLANPEQVTQIVVAANQAEKIGMPKAKYPLMFATMLMCISPKSGSFDQSWEKLDQDTQNPSQHPMPRGLRDMHYKHSEEITGGGLIDNPFQMPHQIAQQNYMPKGLAGRRYYYPKDNENERKLGAQYLKLHRFIYNEDYHE
MGSDKIHHHHHHMAGKLFIVILTPVCNGNCLYCGGYDEGLMPPKIQYPLESLKKIADGNSVAFYGGEPLLEMEKMKEIMDSVKAEHFILQTNGLKLNRLEDEYIRRFSTILVSFDGRREVHDLYRGNYERVLENVLNVRRKGFEGELIARMVASQETDIYEDVMHILNLDCFTHVHWQIDAVWSSDGVWRDFERWVERYNAGVRKLVKFWASELRKGVLHGLVPFMGVATAIFKPFTHPPCSSGFESFAIATDGRILACPICPDLDWNEVGSLDEGIKRRLEILEPCLSCSYFRFCGGRCVFFNRERLWGDRGFRLVCSTVKNLVDSILACKHLILANKEKIMYPRFLNTTEIIP
MGSDKIHHHHHHMAGKQLLLMDGIHKRFGPLIVSAGVTLDVEENEIHALLGENGAGKTVLMSILCGVLSPNEGQIVFKGRPLKLGSPREAIKHRIGMVHQHFMLVPNLTVAENYVLGQGSPFSMIRDMRAVHARILELSDRYGLDVAPDALVSSLSVGERQRVEILKVLYHGIELLILDEPTAVLTPQETDRLLHLLRQLVADGKTVIFISHKLDEVMRVSDRVSVMRDAKVVRTVKTSETTARELARMMVGRDVLMYLPRAPLEPGRVVLSVEHLSCDGEAGLPALRDVSFEVRANEIVGIAGVSGNGQSELALALTGLLPVASGSVTLDGTQLAGLSSYEINQLPMAHIPEDRHRMGIVLPLPLTENVILQRFDKPPFSSRGLLDLNEITRQTRDLMRRFKVKASGPGDRIRNLSGGNQQKLVVGRELDRRFDFLLINQLTRGIDIGATELVMHKILEQRSAGKAILLISTELEELFTLSDRILVMYEGRLVGEIPPDRSRLEEIGLLMAGKSPLSAA
MGSDKIHHHHHHMAGRFDAFVLFAEMRTGSNYLEDSLNTFADINCLGEVFNPTFIGHDNNFEMLGYDMDRREHDPLGLLDAIIDTVDGLPGFRLFHDHDTRVVDRVLPDPRIAKVILTRNPLDSYVSRKIATATGQWKLTDMKHAKTAQIRFDADEFGALLDAVLPFQEYVRQGLLKSGQVAFQVRYEDINDPEMLNGLAAFLGSDERVERASKTLKRQNPAPLRDKVENYEEMVAALSDLDRFGLDKLPELEPDRGAQVPNFVAHPTLGLLFCPIKGAPEKSVLNWMGALGDVGKDALIRKMTQKQLRQWMKDNPGFRSFTVLRHPVVRAYTVFNRFILPDDRPAYADPRKTLRQRYKVPIPENAPGDGWTEAEQKAAFQGFIFFLKGNLAGQTSVRVDQAWATQTAILQGTSSVMVPQAVIHEDHMTEALPALAHQVGAEDVPQVVEEAMPGLHKLKSIYDGKIEQALIDTYRRDYVGFGFPRWNKR
